The source of these data is the supplement of paper PMC12764529.

± gives the half width of the 95% confidence interval. Some results are limits rather than exact numbers.

Data set [1] can be described thus: folding stability dG unfold (combined trypsin and chymotrypsin); higher = more stable. How it is done: (§1)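 Folding stability of de novo designed mini-proteins (<80 aa, no Cys; designed by TrROS, TrMRF, ProteinMPNN and the joint model) was measured by cDNA display proteolysis with trypsin and chymotrypsin. Each protease was used at 11 concentrations in a threefold dilution series plus a no-protease condition. K50 was inferred by Bayesian fitting of sequencing counts, and dG unfold was derived against a sequence-predicted unfolded-state K50 (Tsuboyama et al. method). Sequences shown include variable-length N-terminal GS-type padding (SAGGSAGG...) inside a display construct carrying a PA tag. Rows were kept only if the AF2 dimer inter-PAE was >15, to exclude likely homo-oligomers.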

Data set [2] in a line: folding stability dG unfold from chymotrypsin proteolysis; higher = more stable. On the procedure: as §1

As to “SAGGKPKITITIEKLPDGTIRITITYEDGSKVEIEAKVTYDPKTNTLTIEVTIKINGKTYKITITFKSAGGS [r16_391_TrROS_Hall]”, the “folding stability dG unfold” value in data set [1] turned out to be 4.35 ± 0.68 kcal/mol; in data set [2], 4.4 ± 0.29 kcal/mol.
“SAGGKSKTIPIQPGDIRKVRDQLKELPDEGDNVRIHNPDNGKEREMDPDQLDDNVEKNGEPPTIHVRSAGGS [r16_263_TrROS]”: the “folding stability dG unfold” value in data set [1] is < -1 kcal/mol; in data set [2] it was -0.528 ± 0.072 kcal/mol.
For the sequence “SAGGLVREAAAEAGATGVDIREEVPDPNGGTVVTVLPRPGLSPEEAAAVRARIEAAIAEREPGATVVLESAG [r5_101_JUSTAS]”, the figures for the “folding stability dG unfold” value in data set [1] and in data set [2] were -0.142 ± 0.11 kcal/mol and 0.161 ± 0.029 kcal/mol, respectively.
As for “SAGGMEEIRELLREGKIDEVVERLKELGYEDVKITPIPDKPVVKIEVVRYDPVTGKPTKFTLTIPLEPSAGG [r13_359_TrMRF]”, the “folding stability dG unfold” value was 5.67 ± 0.32 kcal/mol in data set [1] and 5.27 ± 0.11 kcal/mol in data set [2].
Consider “SAGGMILIERDGRERVLEKAREAVEAEAARARAGDVEDAVLLVDLRVVDPVTGEWEELPVLARVPPASAGGS [r8_163_TrMRF]”, for which the “folding stability dG unfold” value in data set [1] is -0.0473 ± 0.11 kcal/mol; in data set [2], 0.461 ± 0.076 kcal/mol.
Consider “SAGGMKIKIEITEIKKEGDTVYIKVKITITLPNGKVIKIEMTLRYNKETGKWEIVKIEKIEIFPLPESAGGS [r16_729_TrROS_Hall]”, for which the “folding stability dG unfold” value in data set [1] came to 5.46 ± 0.49 kcal/mol; in data set [2] it was 5.3 ± 0.31 kcal/mol.
In the same order, the values of “SAGGMKITVTPSTDPNTPLTRETVTVPPTADPEAVAEKLRRAYPDGSTTTVTPRPDGTIVVTTTLPASAGGS [r8_255_JUSTAS]” are -0.291 ± 0.069 kcal/mol and 0.181 ± 0.083 kcal/mol.
Regarding “SAGGMKTSPIGTFPLPDPSNGALADTVTIENPKEIIKKSNKEIVKVTVTTTAPDGTPTTTDEIIIIKNSAGG [r13_735_JUSTAS]”, the “folding stability dG unfold” value in data set [1] was found to be 0.148 ± 0.3 kcal/mol; in data set [2], 0.548 ± 0.066 kcal/mol.
With “SAGGMNSMRLTVEFPSPEQREEKLRQIVHKHGFTIKPKEVEPNPNGRMTHTIEINMPPKVRDAFKDLSAGGS [r8_357_TrROS]”, the “folding stability dG unfold” value was -0.659 ± 0.14 kcal/mol in data set [1] and -0.152 ± 0.19 kcal/mol in data set [2].
On to “SAGGMPKKITKLELLSETYDPLTNTYTVTVRATFDDGTEKVIELTLPRSEYEKLSKEEIKKRAIDLLLSAGG [r13_512_JUSTAS]”, for which the “folding stability dG unfold” value is 5.52 ± 0.34 kcal/mol in data set [1] and 5.29 ± 0.12 kcal/mol in data set [2].
For “SAGGMSVEVDWGETTRRLTFYDESGNPVADAEEPVLDPLTGLSTSRGVSLEELARRAGVPVELPERRSAGGS [r16_778_JUSTAS]”, in that order: 0.337 ± 0.058 kcal/mol and 0.764 ± 0.025 kcal/mol.
In the case of “SAGGMTIEVPDGFRIDGFRPFPDGRSAVLVRYKGTGKVEIFPFGDRVPEASADEPVEVEVVPIPPELLSAGG [r13_173_TrMRF]”, the “folding stability dG unfold” value is -0.353 ± 0.14 kcal/mol in data set [1] and 0.155 ± 0.21 kcal/mol in data set [2].
As for “SAGGMTIPLEFEFESEEEAKEKAEEIAEELAKSFPEYEVEVKIEIKPVKDPNSDTTKWRVKMEITVGPSAGG [r13_545_JUSTAS]”, the “folding stability dG unfold” value in data set [1] amounted to 4.56 ± 0.31 kcal/mol; in data set [2] it was 4.38 ± 0.2 kcal/mol.
Take “SAGGNIEIEIPIPKEDLKDNDFEEAKEYVREYVRMIAREQGLPPGFPIKDIDVQPHPNYYMVKIEIPSAGGS [r16_368_TrROS]”: the “folding stability dG unfold” value in data set [1] came to 0.401 ± 0.16 kcal/mol; in data set [2] it was 0.868 ± 0.26 kcal/mol.
For “SAGGNIKITDIEMEPMNMPRKNEDGKEKPRPMWQFKVRIRDDGKPIAEVPFTSMDDMRNAVKKLLKKSAGGS [r8_21_TrROS]”, in that order: -0.182 ± 0.39 kcal/mol and -0.0964 ± 0.26 kcal/mol.
On to “SAGGNIPPGETWKIKFPGKPIEIQMQQINGKPMYRLRDKNNKPHGTMTPDEADEFLDKLPPNWEIERYSAGG [r13_657_TrROS]”, for which the “folding stability dG unfold” value in data set [1] was -0.353 ± 0.22 kcal/mol; in data set [2] it was -0.253 ± 0.37 kcal/mol.
For “SAGGPKVVKGKKVEKVELEVGKLPDGVELVKVKVRSKEVDKEFTFTFEPGQDLGEFGKATGFDIGVESAGGS [r16_676_TrMRF]”, in that order: 0.14 ± 0.17 kcal/mol and 0.552 ± 0.16 kcal/mol.
With “SAGGSAGGEETLRVTEITDVEKPDNGPRIKFPIEHDGKKKPIDINVPPDDLKPGDTIPLEEILKSAGGSAGG [r6_585_TrROS]”, the “folding stability dG unfold” value stood at 0.222 ± 0.15 kcal/mol in data set [1] and 0.847 ± 0.072 kcal/mol in data set [2].
On to “SAGGSAGGGPDLKVTDIEFDPETGEIRIRTEAGGKLVAEVTIKGAPPVPVYPDKDGNWYPAGAKSAGGSAGG [r6_832_TrMRF]”, for which the “folding stability dG unfold” value in data set [1] stood at 0.517 ± 0.12 kcal/mol; in data set [2], 0.986 ± 0.062 kcal/mol.
As for “SAGGSAGGGPYKTSYAIVDGSVVASTEGDPETGVVTSTFTFDGSDVEYTTPATPGEAVTRTVSLSAGGSAGG [r6_972_JUSTAS]”, the “folding stability dG unfold” value stood at 0.346 ± 0.047 kcal/mol in data set [1] and 0.797 ± 0.059 kcal/mol in data set [2].
Consider “SAGGSAGGITLVVEGMPAEQMEEMKQKIREFAEDYNVEVNIDQERNPDGRMRATVEIEPPPGDPSAGGSAGG [r6_907_TrROS]”, for which the “folding stability dG unfold” value in data set [1] was -0.767 ± 0.28 kcal/mol; in data set [2], -0.472 ± 0.15 kcal/mol.
On to “SAGGSAGGIWIPADEFKGQPIKVRIKHNGNERPIEEVKIKSHPDGFVFIEFPPELPENMKIEIESAGGSAGG [r6_630_TrROS]”, for which the “folding stability dG unfold” value in data set [1] was -0.0114 ± 0.15 kcal/mol; in data set [2], 0.453 ± 0.12 kcal/mol.
Take “SAGGSAGGMIRTYELPETGEVRVLIRTPNPEEAEALAAEVRAELAAAGLDVPVEISPGPASALDSAGGSAGG [r6_641_JUSTAS]”: the “folding stability dG unfold” value in data set [1] came out at 0.283 ± 0.18 kcal/mol; in data set [2], 0.703 ± 0.2 kcal/mol.
With “SAGGSAGGMIVELPTPDDETLTLTTRPTPDGSVPVTATRLTPDSTEVTTVSTADPAVVELVAAASAGGSAGG [r6_607_JUSTAS]”, the results for the “folding stability dG unfold” value in data set [1] and in data set [2] were < -1 kcal/mol and -0.448 ± 0.26 kcal/mol, respectively.
For the sequence “SAGGSAGGMKITITFPDGTKKEIEVESEEELLEAIKKLAEELGLEKEVTVTVEYNGKTYTITLKSAGGSAGG [r6_531_TrROS_Hall]”, the entries for the “folding stability dG unfold” value in data set [1] and in data set [2] were 5.06 ± 0.32 kcal/mol and 5.13 ± 0.25 kcal/mol, respectively.
For “SAGGSAGGMKTKTYTIPLSQVSSIDPSGTVSEEEVKALGLPPNFKATVVPLPGSEEAVEVTVPESAGGSAGG [r6_553_JUSTAS]”, the “folding stability dG unfold” value in data set [1] is -0.381 ± 0.18 kcal/mol; in data set [2], 0.115 ± 0.11 kcal/mol.
As for “SAGGSAGGMTIPAEKIKGKPIKVLVDRGNAIFPLKEAKVKTKPDGRVELYVPKELGEDTKIIAGSAGGSAGG [r6_628_TrMRF]”, the “folding stability dG unfold” value was < -1 kcal/mol in data set [1] and -0.573 ± 0.18 kcal/mol in data set [2].
In the case of “SAGGSAGGMVKTYKTDKETAIELAEKIKKQGVKVEITPHPDSTLLTITINEPKIDPKNSPNIIISAGGSAGG [r6_392_JUSTAS]”, the figures for the “folding stability dG unfold” value in data set [1] and in data set [2] were < -1 kcal/mol and 0.0843 ± 0.3 kcal/mol, respectively.
With “SAGGSAGGPIRIDPEDGRIRNNGQPYKFDKIEDIEPNENNKSIRLTIRMKNGKEHKQPIPADDISAGGSAGG [r6_682_TrROS]”, the entries for the “folding stability dG unfold” value in data set [1] and in data set [2] were < -1 kcal/mol and -0.759 ± 1 kcal/mol, respectively.
As to “SAGGSAGGPKWRRYTIPLDKIKEIDPGGTVTLDDIQDLGLPPDHEIRVVPRPDGEPWVSIEVPYSAGGSAGG [r6_553_TrROS]”, the “folding stability dG unfold” value in data set [1] amounted to 0.201 ± 0.11 kcal/mol; in data set [2], 0.506 ± 0.14 kcal/mol.
In the case of “SAGGSAGGSAAGFTAPVVQVRTENGKIYIDVKNSSVSLTVPENAEITPLESEVVKITPLPAPSAGGSAGGSA [r18_468_JUSTAS]”, the “folding stability dG unfold” value in data set [1] turned out to be 0.00621 ± 0.22 kcal/mol; in data set [2], 0.542 ± 0.1 kcal/mol.
Regarding “SAGGSAGGSAARAYTDVDPVPSTLPNGERVVRVTEAGTGTTSDVPLEALADLDRGAGVTVPPSAGGSAGGSA [r18_288_JUSTAS]”, the results for the “folding stability dG unfold” value in data set [1] and in data set [2] were -0.249 ± 0.069 kcal/mol and 0.538 ± 0.059 kcal/mol, respectively.
For the sequence “SAGGSAGGSADNPQVERTIHDPNGGFKVMINPNDNSIEIWPYKNDKPEPKTFDSPEALDDISAGGSAGGSAG [r3_426_TrROS]”, the “folding stability dG unfold” value in data set [1] is -0.387 ± 0.29 kcal/mol; in data set [2], 0.136 ± 0.17 kcal/mol.
On to “SAGGSAGGSAEKDVKLLDVEELEEERVALVEFPVDPKVVRIKFDKDMTIDEIKKKAKELAGSAGGSAGGSAG [r3_142_TrMRF]”, for which the “folding stability dG unfold” value stood at 0.0889 ± 0.15 kcal/mol in data set [1] and 0.523 ± 0.03 kcal/mol in data set [2].
For the sequence “SAGGSAGGSAEVTFKKVSFSPPENTVYVSEVKAKLYVGEDDSLKFKVEPVKVEKVSPADLLAKSAGGSAGGS [r12_374_TrMRF]”, the “folding stability dG unfold” value in data set [1] was -0.439 ± 0.16 kcal/mol; in data set [2], 0.0476 ± 0.16 kcal/mol.
Take “SAGGSAGGSAGGAAEVLEALRAARGQPVVVLVKDPAGNEREVTVPGDTARFPGWTVVELLSAGGSAGGSAGG [r7_998_JUSTAS]”: the “folding stability dG unfold” value came out at 0.341 ± 0.17 kcal/mol in data set [1] and 0.739 ± 0.11 kcal/mol in data set [2].
Take “SAGGSAGGSAGGAIEEARDLAKEGGPWEATIPVYDPNGGPKTIKIRVEVERDPENGKFKSAGGSAGGSAGGS [r10_346_TrROS]”: the “folding stability dG unfold” value is -0.0783 ± 0.19 kcal/mol in data set [1] and 0.257 ± 0.12 kcal/mol in data set [2].
Consider “SAGGSAGGSAGGAMPNDVKVTTTTFTGTETLTLTDASGTPTSSTKTVTTTRTSVFPDTTSAGGSAGGSAGGS [r10_1212_JUSTAS]”, for which the “folding stability dG unfold” value amounted to 0.311 ± 0.13 kcal/mol in data set [1] and 0.733 ± 0.1 kcal/mol in data set [2].
With “SAGGSAGGSAGGAPVTVIPVKKDNPEVREKTAKELKEKAKEIDPSNIKITIEKGVVTLESAGGSAGGSAGGS [r10_182_JUSTAS]”, the figures for the “folding stability dG unfold” value in data set [1] and in data set [2] were -0.0644 ± 0.13 kcal/mol and 0.263 ± 0.049 kcal/mol, respectively.
“SAGGSAGGSAGGAVGPDVGLPDAPVRFRNPSDDKVFTAYVPAGANFADLAKKYGVEIEPSAGGSAGGSAGGS [r10_202_TrMRF]”: the figures for the “folding stability dG unfold” value in data set [1] and in data set [2] were 0.167 ± 0.15 kcal/mol and 0.673 ± 0.14 kcal/mol, respectively.
For “SAGGSAGGSAGGDVLLFVDESTGLADARALAEALGLKDVVIVPVPPAKPVVLNADGSPTSAGGSAGGSAGGS [r10_1083_TrMRF]”, in that order: -0.0616 ± 0.1 kcal/mol and 0.63 ± 0.052 kcal/mol.
With “SAGGSAGGSAGGEPDPKFHVEYDEEEGRYKVKIYNPNNNKKEEIEVPVPPGQPKEEAIKSAGGSAGGSAGGS [r10_676_TrROS]”, the “folding stability dG unfold” value in data set [1] was -0.269 ± 0.27 kcal/mol; in data set [2] it was 0.0247 ± 0.11 kcal/mol.
